According to the Immune Epitope Database (IEDB):

Biological target: HLA-A*02:01
Assay: IEDB peptide-MHC binding, purified MHC/direct/fluorescence; filed as Kd, often an IC50 or EC50 that approximates it; ≥ and ≤ were set here for values at or beyond the usual limits of such assays
Conditions: source organism: Mycobacterium tuberculosis H37Rv

AIYDTMQYV
Kd: ≤ 1 nM

ALDEGLLPV
Kd: ≤ 1 nM

ALLGGLRPV
Kd: ≤ 1 nM

AMAGSIDLL
Kd: 4 nM

GMFANRWII
Kd: 27 nM

HLDDVGFLV
Kd: ≤ 1 nM

KLQERLAKL
Kd: 18 nM

LLYDGSFAV
Kd: ≤ 1 nM

SLIDLLHKI
Kd: ≤ 1 nM

SLRNWIATL
Kd: 66 nM

SLWKDGAPL
Kd: 5 nM

WLYPGAQNL
Kd: ≤ 1 nM

YLLADTFTV
Kd: ≤ 1 nM

YLPDPTVGV
Kd: ≤ 1 nM

YVYPDNLPV
Kd: 2 nM
